According to the supplement of paper PMC10724198:
± gives the standard deviation of the averaged measurements.

Experiments:
[1] = test system: Saccharomyces cerevisiae; experiment: protein stability index of tFT-peptide fusion (C-terminal peptide) (PSI (0-1 scale)); higher = more stable (slower turnover)
Experimental: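 MPS profiling in S. cerevisiae of the tFT-X12 degron library: putative degron peptides plus stable controls, 12 aa, fused to the C-terminus of a sfGFP-mCherry timer. Cells are FACS-sorted into 8 mCherry/sfGFP bins and deep-sequenced. PSI runs from 0 (unstable) to 1 (stable). Backgrounds are wild type, das1Δ and doa10Δ at 30 °C, and wild type, das1Δ, cdc34-1 and cdc53-1 at 37 °C; 2-3 technical replicates each.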

[2] = test system: Saccharomyces cerevisiae; experiment: as above; settings: genetic background: wild type; temperature: 30 C
[3] = genetic background: cdc34-1, temperature: 37 C
[4] = genetic background: cdc53-1, temperature: 37 C
[5] = genetic background: das1 deletion, temperature: 30 C
[6] = genetic background: das1 deletion, temperature: 37 C
[7] = genetic background: doa10 deletion, temperature: 30 C
[8] = genetic background: wild type, temperature: 30 C
[9] = genetic background: wild type, temperature: 37 C
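Further: PSI is a weighted mean of sequencing reads over stability bins, variants kept only with over 10 reads, mCherry proximal and sfGFP distal, peptide attached via GGGS linker.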

Sequence	protein stability index [1, 3]	protein stability index [1, 4]	protein stability index [1, 5]	protein stability index [1, 6]	protein stability index [1, 7]	protein stability index [1, 8]	protein stability index [1, 9]	protein stability index [2]
WAIMGLIIFCLF	0.309 ± 0.0083	0.363 ± 0.031	0.3 ± 0.035	0.438 ± 0.015	0.222 ± 0.0086	0.244 ± 0.022	0.353 ± 0.012	0.329 ± 0.022
WGEAGRPAGRGA	0.703 ± 0.032	0.758 ± 0.026	0.631 ± 0.007	0.745 ± 0.018	0.644 ± 0.017	0.6506 ± 0.004	0.73024 ± 1.3e-05	0.688 ± 0.039
WGFLSVVCLSGV	0.501 ± 0.029	0.5235 ± 0.0052	0.4 ± 0.024	0.533 ± 0.015	0.384 ± 0.035	0.398 ± 0.013	0.522 ± 0.0023	0.458 ± 0.038
WGLGWRGALVAV	0.417 ± 0.0089	0.42 ± 0.017	0.321 ± 0.033	0.4845 ± 0.0034	0.269 ± 0.0084	0.324 ± 0.027	0.454 ± 0.0095	0.385 ± 0.062
WGLPVGVESSGG	0.712 ± 0.03	0.761 ± 0.021	0.648 ± 0.028	0.761 ± 0.0095	0.64 ± 0.012	0.661 ± 0.032	0.733 ± 0.015	0.732 ± 0.03
WGRFFWGCGVWV	0.631 ± 0.07	0.7128 ± 0.0035	0.6 ± 0.016	0.725 ± 0.0095	0.438 ± 0.016	0.463 ± 0.032	0.644 ± 0.031	0.55 ± 0.074
WGRGYRWRIWDV	0.708 ± 0.068	0.772 ± 0.018	0.657 ± 0.015	0.7901 ± 0.0042	0.396 ± 0.01	0.433 ± 0.0092	0.656 ± 0.034	0.546 ± 0.093
WIGCTVKIASLY	0.619 ± 0.015	0.67 ± 0.018	0.558 ± 0.03	0.693 ± 0.012	0.219 ± 0.021	0.261 ± 0.019	0.49113 ± 0.00019	0.437 ± 0.036
WLCLFRFLGVAY	0.18 ± 0.024	0.245 ± 0.04	0.218 ± 0.033	0.3 ± 0.0097	0.185 ± 0.005	0.216 ± 0.012	0.2749 ± 0.0024	0.345 ± 0.018
WLMVGVDWRFVG	0.436 ± 0.0056	0.6254 ± 0.0043	0.57 ± 0.024	0.7086 ± 0.0033	0.0725 ± 0.015	0.08 ± 0.012	0.0927 ± 0.0084	0.138 ± 0.046
WLSWATRRIVLG	0.552 ± 0.037	0.611 ± 0.019	0.57 ± 0.02	0.605 ± 0.018	0.384 ± 0.008	0.401 ± 0.013	0.527 ± 0.012	0.47 ± 0.031
WLWYSPIAFTAL	0.632 ± 0.014	0.764 ± 0.041	0.64 ± 0.016	0.778 ± 0.02	0.11 ± 0.019	0.107 ± 0.0089	0.163 ± 0.0073	0.179 ± 0.015
WPRSFSIILLSR	0.322 ± 0.036	0.3371 ± 0.002	0.265 ± 0.029	0.4355 ± 0.0031	0.361 ± 0.015	0.288 ± 0.025	0.419 ± 0.0043	0.285 ± 0.027
WRMRCGLIIGLV	0.0313 ± 0.0029	0.0521 ± 0.023	0.155 ± 0.028	0.164 ± 0.0025	0.1 ± 0.025	0.134 ± 0.026	0.125 ± 0.018	0.183 ± 0.032
WRVFRPSLRLFA	0.531 ± 0.04	0.61 ± 0.018	0.467 ± 0.017	0.598 ± 0.012	0.287 ± 0.0051	0.33 ± 0.021	0.507 ± 0.036	0.393 ± 0.051
WVFMVILLVFLV	0.216 ± 0.0073	0.268 ± 0.017	0.257 ± 0.021	0.33 ± 0.038	0.28 ± 0.0053	0.228 ± 0.022	0.315 ± 0.014	0.3041 ± 0.0026
YAFYLFSRILAA	0.232 ± 0.0091	0.302 ± 0.075	0.236 ± 0.025	0.3486 ± 0.0015	0.1792 ± 0.0014	0.208 ± 0.016	0.285 ± 0.013	0.2795 ± 0.00053

Sequence	protein stability index [1, 3]	protein stability index [1, 4]	protein stability index [1, 5]	protein stability index [1, 6]	protein stability index [1, 7]	protein stability index [1, 8]	protein stability index [1, 9]	protein stability index [2]
YALVQHRWVYYF	0.4 ± 0.0056	0.633 ± 0.061	0.625 ± 0.019	0.724 ± 0.011	0.0888 ± 0.011	0.0761 ± 0.011	0.0856 ± 0.0031	0.119 ± 0.031
YCFLSWVLMCCF	0.457 ± 0.019	0.4613 ± 0.0037	0.399 ± 0.018	0.438 ± 0.011	0.421 ± 0.025	0.386 ± 0.0065	0.42 ± 0.0059	0.406 ± 0.022
YFNGLLPLVLVF	0.0299 ± 0.0068	0.0434 ± 0.004	0.074 ± 0.01	0.0623 ± 0.018	0.0659 ± 0.018	0.0601 ± 0.0082	0.0517 ± 0.028	0.0927 ± 0.049
YHFSLFFPLSLP	0.685 ± 0.022	0.73 ± 0.028	0.607 ± 0.015	0.711 ± 0.0088	0.378 ± 0.0088	0.383 ± 0.017	0.568 ± 0.032	0.482 ± 0.0063
YLAGPLARLRKF	0.68 ± 0.046	0.7579 ± 0.0021	0.752 ± 0.027	0.738 ± 0.0093	0.716 ± 0.037	0.749 ± 0.041	0.735 ± 0.013	0.751 ± 0.037
YLDRFIFIYNIF	0.603 ± 0.034	0.6848 ± 0.0062	0.599 ± 0.048	0.707 ± 0.031	0.189 ± 0.0069	0.202 ± 0.017	0.367 ± 0.023	0.26 ± 0.025
YLGLSAVAILWM	0.538 ± 0.041	0.533 ± 0.02	0.414 ± 0.029	0.563 ± 0.014	0.381 ± 0.011	0.412 ± 0.018	0.529 ± 0.011	0.4784 ± 0.0037
YLVFSLCSYRFL	0.596 ± 0.012	0.677 ± 0.022	0.511 ± 0.019	0.653 ± 0.011	0.36 ± 0.011	0.374 ± 0.029	0.549 ± 0.016	0.457 ± 0.033
YNRKQEAAQKAN	0.671 ± 0.02	0.735 ± 0.029	0.617 ± 0.0072	0.71085 ± 0.00017	0.363 ± 0.025	0.396 ± 0.018	0.606 ± 0.011	0.486 ± 0.14
YNTRLCTFSCML	0.772 ± 0.013	0.8079 ± 0.007	0.668 ± 0.033	0.7881 ± 0.0015	0.657 ± 0.025	0.698 ± 0.021	0.772 ± 0.011	0.755 ± 0.0089
YPCRLFVRSLLA	0.442 ± 0.05	0.436 ± 0.031	0.369 ± 0.023	0.498 ± 0.0098	0.205 ± 0.0068	0.235 ± 0.022	0.375 ± 0.019	0.32 ± 0.051
YRGFFIGKLMLV	0.488 ± 0.04	0.548 ± 0.03	0.482 ± 0.035	0.63 ± 0.013	0.112 ± 0.017	0.113 ± 0.018	0.216 ± 0.081	0.201 ± 0.013
YRKKIKNIWLRW	0.442 ± 0.017	0.428 ± 0.026	0.475 ± 0.033	0.6017 ± 0.0025	0.444 ± 0.058	0.322 ± 0.033	0.535 ± 0.0073	0.473 ± 0.041
YRLTIVWFFLAL	0.434 ± 0.028	0.519 ± 0.006	0.354 ± 0.026	0.609 ± 0.034	0.3504 ± 0.002	0.349 ± 0.012	0.513 ± 0.011	0.427 ± 0.055
YSVERCLFVSVA	0.422 ± 0.025	0.4443 ± 0.0013	0.352 ± 0.034	0.502 ± 0.013	0.287 ± 0.02	0.314 ± 0.01	0.443 ± 0.018	0.414 ± 0.034
YVASSWRHCFII	0.5016 ± 0.0016	0.657 ± 0.039	0.658 ± 0.022	0.724 ± 0.039	0.145 ± 0.012	0.152 ± 0.014	0.269 ± 0.023	0.221 ± 0.039
YVLLSRVSVFSA	0.446 ± 0.0078	0.464 ± 0.031	0.378 ± 0.019	0.533 ± 0.0079	0.297 ± 0.011	0.329 ± 0.037	0.501 ± 0.028	0.421 ± 0.035
